Reference: patent US20200002383A1

Assays:
[1] = target: CH505 TF loop D mutant M8 Env on virus (HIV-1)
[2] = target: CH505 M5 gp120 (HIV-1); experiment: ELISA
[3] = target: CH505 M11 gp120 (HIV-1); experiment: ELISA
[4] = target: CH505 transmitted/founder (TF) gp120 Env (HIV-1); experiment: ELISA
[5] = target: CH505 w020.14 gp120 (HIV-1); experiment: ELISA
[6] = target: CH505 w030.28 gp120 (HIV-1); experiment: ELISA
[7] = target: CH505 w078.15 gp120 (HIV-1); experiment: ELISA
[8] = target: CH505 w030.21 gp120 (HIV-1); experiment: ELISA
[9] = target: CH505 w053.16 gp120 (HIV-1); experiment: ELISA
[10] = target: CH505 w053.31 gp120 (HIV-1); experiment: ELISA
[11] = target: CH505 w078.33 gp120 (HIV-1); experiment: ELISA
[12] = target: CH505 w100.B6 gp120 (HIV-1); experiment: ELISA
[13] = target: CH505 transmitted/founder (TF) gp120 Env (HIV-1); experiment: SPR
[14] = target: CH505 TF CHIM.6R.SOSIP.664V4.1 trimer (HIV-1); experiment: kinetic binding assay of FIG. 69
[15] = target: CH505 transmitted/founder (TF) gp120 Env (HIV-1); experiment: SPR, antibody captured, gp120 injected
[16] = target: CH505 TF loop D mutant M20 Env on virus (HIV-1)
[17] = target: CH505 TF loop D mutant M7 Env on virus (HIV-1)
[18] = target: CH505 TF loop D mutant M9 Env on virus (HIV-1)
[19] = target: BG505 SOSIP.664 gp140 trimer (HIV-1); experiment: negative-stain EM

Row | Substance | log AUC [2] | log AUC [3] | log AUC [4] | log AUC [5] | log AUC [6] | log AUC [7] | further results
1 | CH235.9 (antibody) | – | – | – | – | – | – | IC50 [1]: 0.66 µg/mL
2 | CH235 UCA (antibody) | 0.2 log AUC | – | – | – | – | – | –
3 | CH103 lineage IA7 (antibody) | 2.3 log AUC | 10.1 log AUC | 9.2 log AUC | 7.2 log AUC | 3.5 log AUC | 0.7 log AUC | –
4 | CH235 lineage I3 (antibody) | 7 log AUC | – | – | 2.7 log AUC | – | – | –
5 | CH103 lineage IA8 (antibody) | 0.6 log AUC | 6.2 log AUC | 5.5 log AUC | 3.4 log AUC | 1.6 log AUC | – | –
6 | CH103 lineage IA2 (antibody) | 7.8 log AUC | 12.7 log AUC | 10.8 log AUC | 11 log AUC | 11.1 log AUC | 11.5 log AUC | log AUC [8]: 11.5 log AUC; log AUC [9]: 9.3 log AUC; log AUC [10]: 13.3 log AUC; log AUC [11]: 9 log AUC; log AUC [12]: 12.1 log AUC
7 | CH235 lineage I1 (antibody) | 9.2 log AUC | 2.8 log AUC | – | 6.5 log AUC | 2.4 log AUC | – | –
8 | CH103 UCA (antibody) | – | 2.6 log AUC | 3.5 log AUC | 0.3 log AUC | – | – | Kd [13]: 200 nM; fold change of the off-rate against CH505 TF gp120 [14]: 10 fold; Kd [15]: 227 nM; kon [15]: 37000 M⁻¹ s⁻¹
9 | CH235 lineage I2 (antibody) | 6.9 log AUC | – | – | 1.2 log AUC | – | – | –
10 | CH103 lineage IA3 (antibody) | 6.8 log AUC | 11.8 log AUC | 11 log AUC | 9.5 log AUC | 7.7 log AUC | 3 log AUC | log AUC [9]: 1.1 log AUC
11 | CH235 lineage IA4 (antibody) | 1.4 log AUC | – | – | – | – | – | –
12 | CH103 lineage IA4 (from UniProt P27701) (antibody) | 3.8 log AUC | 10.5 log AUC | 10.1 log AUC | 8.6 log AUC | 6.5 log AUC | 1.3 log AUC | log AUC [9]: 0.2 log AUC
13 | CH235.9 N30T (antibody) | – | – | – | – | – | – | IC50 [16]: > 44 µg/mL; IC50 [17]: > 44 µg/mL; IC50 [1]: 24.3 µg/mL; IC50 [18]: > 44 µg/mL
14 | CH103 lineage IA6 (antibody) | 3.3 log AUC | 10 log AUC | 9.1 log AUC | 7.9 log AUC | 6.3 log AUC | 1 log AUC | –
15 | CH103 lineage IA1 (antibody) | 7 log AUC | 12.2 log AUC | 10.4 log AUC | 10.3 log AUC | 10.1 log AUC | 10.9 log AUC | log AUC [8]: 11.8 log AUC; log AUC [9]: 8.8 log AUC; log AUC [10]: 13.4 log AUC; log AUC [11]: 8.2 log AUC; log AUC [12]: 12.2 log AUC
16 | CH235 Fab | – | – | – | – | – | – | stoichiometry (Fabs per trimer) (Fab per trimer) [19]: 1
